We go through one molecule from patent publication US20170224836A1 (Novartis, published 2017).

The experiment concerns the target T1, cynomolgus CDH6 on cells (cynomolgus, UniProt A0A2K5TW62 54-790).
T1 sequence: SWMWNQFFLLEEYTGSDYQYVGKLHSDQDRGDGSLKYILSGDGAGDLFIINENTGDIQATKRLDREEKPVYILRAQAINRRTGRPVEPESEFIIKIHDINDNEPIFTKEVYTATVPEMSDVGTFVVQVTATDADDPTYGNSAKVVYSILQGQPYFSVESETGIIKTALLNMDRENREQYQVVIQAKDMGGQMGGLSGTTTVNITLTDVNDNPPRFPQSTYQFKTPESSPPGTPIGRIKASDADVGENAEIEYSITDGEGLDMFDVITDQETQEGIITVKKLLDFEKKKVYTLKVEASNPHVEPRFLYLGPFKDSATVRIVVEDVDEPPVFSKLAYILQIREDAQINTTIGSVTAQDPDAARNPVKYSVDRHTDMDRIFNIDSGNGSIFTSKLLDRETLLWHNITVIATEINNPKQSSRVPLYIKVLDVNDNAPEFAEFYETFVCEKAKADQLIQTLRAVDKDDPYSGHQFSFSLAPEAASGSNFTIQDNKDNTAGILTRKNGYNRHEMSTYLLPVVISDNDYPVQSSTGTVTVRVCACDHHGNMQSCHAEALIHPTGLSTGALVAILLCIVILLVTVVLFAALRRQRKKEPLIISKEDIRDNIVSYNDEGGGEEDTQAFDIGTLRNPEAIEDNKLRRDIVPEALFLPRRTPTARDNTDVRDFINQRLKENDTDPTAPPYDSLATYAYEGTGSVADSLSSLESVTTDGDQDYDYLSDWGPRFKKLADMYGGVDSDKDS
Nature of the experiment: FACS on CHO-cynoCDH6 cells.

B1: NOV0712 (antibody, human IgG1, kappa, V domains shown)
VH: QVQLLESGGGLVQPGGSLRLSCAASGFTFSSHGMHWVRQAPGKGLEWVSVISGSGSNTGYADSVKGRFTISRDNSKNTLYLQMNSLRAEDTAVYYCARQWGSYAFDSWGQGTLVTVSS
VL: DIQMTQSPSSLSASVGDRVTITCRASQSISSYLNWYQQKPGKAPKLLIYAVSTLQSGVPSRFSGSGSGTDFTLTISSLQPEDFATYYCQQSGTFPPTTFGQGTKVEIKR
As to B1, the “EC50 (read off the curve)” value was about 1 nM.

A word on the EC50 (read off the curve): it is the concentration at which the effect is half-maximal.
